The values below come from patent US20180155451A1 (published 2018).

Assay [1] has as its target T1, FcγRIIb (extracellular domain, C-terminal His tag) (human, UniProt P31994 43-217).
T1 construct: extracellular domain; also called FcgRIIb; 2b; not shown: His tag attached to the C terminus
T1 sequence (looked up): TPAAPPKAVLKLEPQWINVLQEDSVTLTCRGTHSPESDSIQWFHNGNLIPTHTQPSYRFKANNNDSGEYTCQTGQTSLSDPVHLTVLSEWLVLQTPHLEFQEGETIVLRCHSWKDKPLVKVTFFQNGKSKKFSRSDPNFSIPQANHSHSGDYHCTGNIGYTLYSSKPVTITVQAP
The experiment in a line: SPR (Biacore), antibody captured on antigen-peptide chip, FcγR as analyte; relative binding amount. How it is done: (§1) The heterodimerized antibodies He Abs in which one of the H chains was introduced with an alteration were assayed for their binding activities to each activating FcγR and inhibitory FcγR according to the method described in Example 4. […] The activating FcγRs in FIGS. 26, 27, 28, and 29 are FcγRIa, FcγRIIa (R), FcγRIIa (H), and FcγRIIIa, respectively.
(§2) Analysis of interaction between objective antibody and the FcγR was carried out using Biacore T100 (GE Healthcare). HBS-EP+ (GE Healthcare) was used as the running buffer, and the measurement temperature was set to 25° C. Chips produced by immobilizing the antigen peptide by the amine coupling method to a Series S Sencor Chip CM5 (GE Healthcare), or alternatively, chips produced by allowing preliminarily biotinylated antigen peptides to interact with and immobilize onto a Series S Sensor Chip SA (certified) (GE Healthcare) were used. Antibodies of interest were captured onto an antigen peptide-immobilized chip, and allowed to interact to each FcγR diluted with running buffer. To regenerate and repeatedly use the chip, the antibodies captured on the chip were washed off by reacting 10 mM glycine-HCl, pH 1.5.
Background: SPR reads the build-up and loss of mass on a sensor chip optically.

Assay [2] addresses T2, FcγRIIa R (extracellular domain, C-terminal His tag) (human, UniProt P12318 34-217).
T2 construct: extracellular domain; also called FcgRIIa R type; 2aR; not shown: His tag attached to the C terminus
T2 sequence (looked up): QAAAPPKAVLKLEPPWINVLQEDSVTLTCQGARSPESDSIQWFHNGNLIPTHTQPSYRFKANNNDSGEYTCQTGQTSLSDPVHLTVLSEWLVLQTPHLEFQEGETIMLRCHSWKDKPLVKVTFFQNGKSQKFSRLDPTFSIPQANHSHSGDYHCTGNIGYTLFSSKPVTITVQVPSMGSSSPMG
Described as above. How it is done:
as §1, §2

Assay [3] addresses T3, FcγRIIb, extracellular domain with C-terminal His tag (human, UniProt P31994 43-217).
T3 construct: extracellular domain; also called 2b; FcgRIIb; not shown: His tag at the C terminus
T3 sequence (looked up): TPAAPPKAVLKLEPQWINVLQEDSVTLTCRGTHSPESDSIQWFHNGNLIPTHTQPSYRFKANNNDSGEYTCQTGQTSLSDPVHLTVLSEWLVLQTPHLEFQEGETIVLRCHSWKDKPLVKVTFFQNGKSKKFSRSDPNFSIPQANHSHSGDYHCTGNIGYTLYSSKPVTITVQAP
The experiment in a line: SPR (Biacore), antibody captured on antigen-peptide chip, FcγR as analyte; GpH7-A5/GpH7-B3/GpL16-k0 = 100. The procedure: as §1, §2

In assay [4] the target is T4, FcγRIIa H (FcγRIIa type H, His at position 131), extracellular domain with C-terminal His tag (human, UniProt P12318 34-217).
T4 construct: extracellular domain; also called 2aH; FcgRIIa H; not shown: His tag at the C terminus
T4 sequence (looked up): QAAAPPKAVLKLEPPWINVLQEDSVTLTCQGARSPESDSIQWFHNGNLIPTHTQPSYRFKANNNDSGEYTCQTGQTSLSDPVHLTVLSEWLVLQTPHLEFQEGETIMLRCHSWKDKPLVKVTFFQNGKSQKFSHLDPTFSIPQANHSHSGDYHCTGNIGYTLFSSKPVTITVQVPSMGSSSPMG
The description is as above. The procedure:
as §1, §2

B1: GpH7-A5/GpH7-B3 variant S337_12R/GpL16-k0 (antibody, human IgG1, kappa)
heavy 1: not shown
heavy 2: not shown
light: DIVMTQSPLSLPVTPGEPASISCQASESLVHSNRNTYLHWYLQKPGQSPQLLIYKVSNRFSGVPDRFSGSGSGTDFTLKISRVEAEDVGVYYCSQNTHVPPTFGQGTKVEIERTVAAPSVFIFPPSDEQLKSGTASVVCLLNNFYPREAKVQWKVDNALQSGNSQESVTEQDSKDSTYSLSSTLTLSKADYEKHKVYACEVTHQGLSSPVTKSFNRGEC
notes: Heterodimerized anti-glypican-3 IgG1; alteration in only one H chain (GpH7-B3 side); also called He Ab
In the case of B1, the He/Con_2b in assay [1] was 99.5 % of control (GpH7-A5/GpH7-B3/GpL16-k0 = 100). In assay [2], the He/Con_2aR is 107 % of control (GpH7-A5/GpH7-B3/GpL16-k0 = 100).

B2: GpH7-A5/GpH7-B3 variant K326_08L/GpL16-k0 (antibody, human IgG1, kappa)
heavy 1: not shown
heavy 2: not shown
light: DIVMTQSPLSLPVTPGEPASISCQASESLVHSNRNTYLHWYLQKPGQSPQLLIYKVSNRFSGVPDRFSGSGSGTDFTLKISRVEAEDVGVYYCSQNTHVPPTFGQGTKVEIERTVAAPSVFIFPPSDEQLKSGTASVVCLLNNFYPREAKVQWKVDNALQSGNSQESVTEQDSKDSTYSLSSTLTLSKADYEKHKVYACEVTHQGLSSPVTKSFNRGEC
notes: Heterodimerized IgG1 (He Ab); mutation only in the GpH7-B3 chain; also called He Ab K326L
As to B2, the “He/Con_2b (relative binding activity)” value in assay [3] is 177 % of control. In addition, the “He/Con_2aH (relative binding activity)” value in assay [4] was 92.7 % of control.

B3: GpH7-A5/GpH7-B3 variant H268_05P/GpL16-k0 (antibody, human IgG1, kappa)
heavy 1: not shown
heavy 2: not shown
light: DIVMTQSPLSLPVTPGEPASISCQASESLVHSNRNTYLHWYLQKPGQSPQLLIYKVSNRFSGVPDRFSGSGSGTDFTLKISRVEAEDVGVYYCSQNTHVPPTFGQGTKVEIERTVAAPSVFIFPPSDEQLKSGTASVVCLLNNFYPREAKVQWKVDNALQSGNSQESVTEQDSKDSTYSLSSTLTLSKADYEKHKVYACEVTHQGLSSPVTKSFNRGEC
notes: Heterodimerized IgG1 (He Ab); mutation only in the GpH7-B3 chain; also called He Ab H268P
B3: the “He/Con_2b (relative binding activity)” value in assay [3] was 116 % of control. For the same molecule, in assay [4], the “He/Con_2aH (relative binding activity)” value is 81.8 % of control.

B4: GpH7-A5/GpH7-B3 variant K326_05P/GpL16-k0 (antibody, human IgG1, kappa)
heavy 1: not shown
heavy 2: not shown
light: DIVMTQSPLSLPVTPGEPASISCQASESLVHSNRNTYLHWYLQKPGQSPQLLIYKVSNRFSGVPDRFSGSGSGTDFTLKISRVEAEDVGVYYCSQNTHVPPTFGQGTKVEIERTVAAPSVFIFPPSDEQLKSGTASVVCLLNNFYPREAKVQWKVDNALQSGNSQESVTEQDSKDSTYSLSSTLTLSKADYEKHKVYACEVTHQGLSSPVTKSFNRGEC
notes: Heterodimerized IgG1 (He Ab); mutation only in the GpH7-B3 chain; also called He Ab K326P
Consider B4, for which the “He/Con_2b (relative binding activity)” value in assay [3] was 126 % of control. The “He/Con_2aH (relative binding activity)” value in assay [4] was 98.8 % of control.

B5: GpH7-A5/GpH7-B3 variant K326_04F/GpL16-k0 (antibody, human IgG1, kappa)
heavy 1: not shown
heavy 2: not shown
light: DIVMTQSPLSLPVTPGEPASISCQASESLVHSNRNTYLHWYLQKPGQSPQLLIYKVSNRFSGVPDRFSGSGSGTDFTLKISRVEAEDVGVYYCSQNTHVPPTFGQGTKVEIERTVAAPSVFIFPPSDEQLKSGTASVVCLLNNFYPREAKVQWKVDNALQSGNSQESVTEQDSKDSTYSLSSTLTLSKADYEKHKVYACEVTHQGLSSPVTKSFNRGEC
notes: Heterodimerized IgG1 (He Ab); mutation only in the GpH7-B3 chain; also called He Ab K326F
Regarding B5, the “He/Con_2b (relative binding activity)” value in assay [3] is 155 % of control. Besides, the “He/Con_2aH (relative binding activity)” value in assay [4] was 97 % of control.

B6: GpH7-A5/GpH7-B3 variant H268_03V/GpL16-k0 (antibody, human IgG1, kappa)
heavy 1: not shown
heavy 2: not shown
light: DIVMTQSPLSLPVTPGEPASISCQASESLVHSNRNTYLHWYLQKPGQSPQLLIYKVSNRFSGVPDRFSGSGSGTDFTLKISRVEAEDVGVYYCSQNTHVPPTFGQGTKVEIERTVAAPSVFIFPPSDEQLKSGTASVVCLLNNFYPREAKVQWKVDNALQSGNSQESVTEQDSKDSTYSLSSTLTLSKADYEKHKVYACEVTHQGLSSPVTKSFNRGEC
notes: Heterodimerized IgG1 (He Ab); mutation only in the GpH7-B3 chain; also called He Ab H268V
B6: the “He/Con_2b (relative binding activity)” value in assay [3] is 114 % of control. In assay [4], the “He/Con_2aH (relative binding activity)” value was 99.2 % of control.

B7: GpH7-A5/GpH7-B3 variant H268_01G/GpL16-k0 (antibody, human IgG1, kappa)
heavy 1: not shown
heavy 2: not shown
light: DIVMTQSPLSLPVTPGEPASISCQASESLVHSNRNTYLHWYLQKPGQSPQLLIYKVSNRFSGVPDRFSGSGSGTDFTLKISRVEAEDVGVYYCSQNTHVPPTFGQGTKVEIERTVAAPSVFIFPPSDEQLKSGTASVVCLLNNFYPREAKVQWKVDNALQSGNSQESVTEQDSKDSTYSLSSTLTLSKADYEKHKVYACEVTHQGLSSPVTKSFNRGEC
notes: Heterodimerized IgG1 (He Ab); mutation only in the GpH7-B3 chain; also called He Ab H268G
B7: the “He/Con_2b (relative binding activity)” value in assay [3] was 144 % of control. The “He/Con_2aH (relative binding activity)” value in assay [4] is 99.2 % of control.
